Results published in paper PMC4260937 (Nature, 2014).

B1: 17-HD9 IgG (antibody, V domains shown)
VH: QVQLQESGPGLVKPSETLSLTCVVSGGSFSSYYWTWIRQSPGKGLEWIGEMNGNSGYTNYNPSLQSRVTISKDASKNQFSLKLTSLTAADTAVYYCARDAIVMVFTDMRGRVDVWGPGILVTVSS
VL: DIQMSQSPSSLSASVGDTVTITCRASQGISNYLAWYQQKPGKAPKSLIYYTSHLESGVPSRFSGSGSGTDFSLTISSLQPEDFATYYCQQHNSYPRTFGQGTKVEIK

Assays:
Assay in all cases: SPR
FFL_001_surf4 = molecular target: FFL_001_surf4
FFL_001_surf1 = molecular target: FFL_001_surf1
FFL_001_surf2 = molecular target: FFL_001_surf2
FFL_001 = molecular target: T1, FFL_001 (synthetic construct (designed scaffold))
T1 chain: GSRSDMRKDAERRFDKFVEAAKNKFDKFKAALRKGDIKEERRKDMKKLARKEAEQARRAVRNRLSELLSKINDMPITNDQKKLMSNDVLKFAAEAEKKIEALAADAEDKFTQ

Molecule | Kd (FFL_001_surf4) | koff (FFL_001_surf4) | Kd (FFL_001_surf1) | kon (FFL_001_surf1) | Kd (FFL_001_surf2) | koff (FFL_001_surf2) | kon (FFL_001_surf2) | Kd (FFL_001)
motavizumab Fab | 0.0329 nM | 0.000158 s⁻¹ | 0.00632 nM | 7.43e+06 M⁻¹ s⁻¹ | 0.0296 nM | 0.000158 s⁻¹ | 5.32e+06 M⁻¹ s⁻¹ | 
B1 |  |  |  |  |  |  |  | ~0.003 nM
